According to PMC4941815 (Molecular cell, 2016):
Read-outs that look alike come from different tables or passages of the source.

B2: full-length His-tagged CLK1 (enzyme)
chain: not shown
B3: kdSRPK1, kinase inactive SRPK1 containing K109M (enzyme, UniProt Q96SB4 1-655, looked up)
chain: MERKVLALQARKKRTKAKKDKAQRKSETQHRGSAPHSESDLPEQEEEILGSDDDEQEDPNDYCKGGYHLVKIGDLFNGRYHVIRKLGWGHFSTVWLSWDIQGKKFVAMMVVKSAEHYTETALDEIRLLKSVRNSDPNDPNREMVVQLLDDFKISGVNGTHICMVFEVLGHHLLKWIIKSNYQGLPLPCVKKIIQQVLQGLDYLHTKCRIIHTDIKPENILLSVNEQYIRRLAAEATEWQRSGAPPPSGSAVSTAPQPKPADKMSKNKKKKLKKKQKRQAELLEKRMQEIEEMEKESGPGQKRPNKQEESESPVERPLKENPPNKMTQEKLEESSTIGQDQTLMERDTEGGAAEINCNGVIEVINYTQNSNNETLRHKEDLHNANDCDVQNLNQESSFLSSQNGDSSTSQETDSCTPITSEVSDTMVCQSSSTVGQSFSEQHISQLQESIRAEIPCEDEQEQEHNGPLDNKGKSTAGNFLVNPLEPKNAEKLKVKIADLGNACWVHKHFTEDIQTRQYRSLEVLIGSGYNTPADIWSTACMAFELATGDYLFEPHSGEEYTRDEDHIALIIELLGKVPRKLIVAGKYSKEFFTKKGDLKHITKLKPWGLFEVLVEKYEWSQEEAAGFTDFLLPMLELIPEKRATAAECLRHPWLNS

Experiments:
His-tagged SRPK1 [1] = target: T1, His-tagged SRPK1 (UniProt Q96SB4 1-655); test: pull-down
His-tagged SRPK1 [2] = target: T1, His-tagged SRPK1; test: pull-down; remark: listed apart in the source
[3] = target: B3; test: displacement of 32P-phospho-GST-SRSF1 from His-CLK1 on Ni-resin
[4] = target: B2; test: as above

B1: GST-tagged form of the CLK1 N-terminus (domain or fragment, UniProt P49759 1-160, looked up)
chain: MRHSKRTYCPDWDDKDWDYGKWRSSSSHKRRKRSHSSAQENKRCKYNHSKMCDSHYLESRSINEKDYHSRRYIDEYRNDYTQGCEPGHRQRDHESRYQNHSSKSSGRSGRSSYKSKHRIHHSTSHRRSHGKSHRRKRTRSVEDDEEGHLICQSGDVLSAR
B1: binds (His-tagged SRPK1 [1]).

In the case of B2, the binding result (His-tagged SRPK1 [2]) is reported as “binds” and the Kd [3] is reported as 16 ± 6 nM.

B3 was tested, and the “stoichiometry N” value [4] was 1.
